Laboratory results reported in article PMC7022249, “Biochemical and Structural Characterization of OXA-405, an OXA-48 Variant with Extended-Spectrum β-Lactamase Activity” (Microorganisms, 2019).

Key:
OXA-405 β-lactamase [1] = target: T1, OXA-405 β-lactamase (Serratia marcescens, UniProt A0A0F6P2I5); test: steady-state hydrolysis kinetics (Km) with purified enzyme; type: biochemical
T1 construct: gene blaOXA-405

OXA-405 β-lactamase [2] = target: T1, OXA-405 β-lactamase; test: IC50 with purified enzyme, […] benzylpenicillin as reporter substrate, […] min preincubation; type: biochemical
[3] = system: C[C@@H](O)[C@H]1C(=O)N2C(C(=O)O)=C(S[C@@H]3CN[C@H](C(=O)Nc4cccc(C(=O)O)c4)C3)[C@H](C)[C@H]12; test: steady-state hydrolysis kinetics (Km) with purified enzyme; type: biochemical, Serratia marcescens
[4] = system: CC(=O)OCC1=C(C(=O)O)N2C(=O)[C@@H](NC(=O)Cc3cccs3)[C@H]2SC1; test: as above; type: biochemical, Serratia marcescens
[5] = system: CC1(C)S[C@@H]2[C@H](NC(=O)Cc3ccccc3)C(=O)N2[C@H]1C(=O)O; test: as above; type: biochemical, Serratia marcescens
[6] = system: C[C@@H](O)[C@H]1C(=O)N2C(C(=O)O)=C(SCCN=CN)C[C@H]12; test: as above; type: biochemical, Serratia marcescens
[7] = system: Cc1onc(-c2ccccc2)c1C(=O)N[C@@H]1C(=O)N2[C@@H]1SC(C)(C)[C@@H]2C(=O)O; test: as above; type: biochemical, Serratia marcescens
[8] = system: CC1(C)S[C@@H]2[C@H](NC(=O)[C@H](N)c3ccccc3)C(=O)N2[C@H]1C(=O)O; test: as above; type: biochemical, Serratia marcescens
[9] = system: CO/N=C(\C(=O)N[C@@H]1C(=O)N2C(C(=O)O)=C(COC(C)=O)CS[C@H]12)c1csc(N)n1; test: as above; type: biochemical, Serratia marcescens

T1 sequence (A0A0F6P2I5 23-261 limits assumed): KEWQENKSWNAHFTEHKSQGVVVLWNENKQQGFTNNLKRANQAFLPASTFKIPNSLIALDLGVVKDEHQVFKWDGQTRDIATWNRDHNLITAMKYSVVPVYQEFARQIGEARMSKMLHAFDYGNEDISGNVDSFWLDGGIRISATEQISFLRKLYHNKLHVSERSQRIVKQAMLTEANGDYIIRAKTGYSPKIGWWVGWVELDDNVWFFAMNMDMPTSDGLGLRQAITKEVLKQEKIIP

CC(C)(O/N=C(\C(=O)N[C@@H]1C(=O)N2C(C(=O)[O-])=C(C[n+]3ccccc3)CS[C@H]12)c1csc(N)n1)C(=O)O [Ceftazidime]
Km (OXA-405 β-lactamase [1]): > 1000 µM

O=C(O)[C@H]1/C(=C/CO)O[C@@H]2CC(=O)N21 [Clavulanic acid]
IC50 (OXA-405 β-lactamase [2]): 6 µM

C[C@]1(Cn2ccnn2)[C@H](C(=O)O)N2C(=O)C[C@H]2S1(=O)=O [Tazobactam]
IC50 (OXA-405 β-lactamase [2]): 1.8 µM

OXA-405 β-lactamase (Serratia marcescens)
Km [3]: 88 µM | kcat [3]: 0.04 s⁻¹ | kcat/Km [3]: 400 M⁻¹ s⁻¹ | Km [4]: 18 µM | kcat [4]: 8 s⁻¹ | kcat/Km [4]: 444000 M⁻¹ s⁻¹ | Km [5]: 18 µM | kcat [5]: 12 s⁻¹ | kcat/Km [5]: 667000 M⁻¹ s⁻¹ | Km [6]: 532 µM | kcat [6]: 0.1 s⁻¹ | kcat/Km [6]: 200 M⁻¹ s⁻¹ | Km [7]: 69 µM | kcat [7]: 19 s⁻¹ | kcat/Km [7]: 275000 M⁻¹ s⁻¹ | Km [8]: 212 µM | kcat [8]: 29 s⁻¹ | kcat/Km [8]: 137000 M⁻¹ s⁻¹ | Km [9]: 369 µM | kcat [9]: 9.7 s⁻¹ | kcat/Km [9]: 26000 M⁻¹ s⁻¹
